PMC3245869 (Molecular cell, 2008)

Biological target: T1, Rnr2-Rnr4 heterodimer (ribonucleotide reductase small subunit) (S. cerevisiae, UniProt P09938 1-399; P49723 1-345)
T1 sequence (looked up) 1: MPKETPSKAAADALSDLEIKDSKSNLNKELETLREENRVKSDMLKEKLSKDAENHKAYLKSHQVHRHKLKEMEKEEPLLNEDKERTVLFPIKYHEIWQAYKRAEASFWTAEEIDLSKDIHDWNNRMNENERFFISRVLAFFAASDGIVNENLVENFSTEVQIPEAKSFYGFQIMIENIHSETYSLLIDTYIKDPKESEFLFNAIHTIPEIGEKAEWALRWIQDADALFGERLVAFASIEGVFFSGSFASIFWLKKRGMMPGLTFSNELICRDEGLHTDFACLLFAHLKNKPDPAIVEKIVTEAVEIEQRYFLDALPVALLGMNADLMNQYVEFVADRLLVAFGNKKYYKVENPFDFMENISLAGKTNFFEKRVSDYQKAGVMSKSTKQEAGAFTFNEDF
T1 sequence (looked up) 2: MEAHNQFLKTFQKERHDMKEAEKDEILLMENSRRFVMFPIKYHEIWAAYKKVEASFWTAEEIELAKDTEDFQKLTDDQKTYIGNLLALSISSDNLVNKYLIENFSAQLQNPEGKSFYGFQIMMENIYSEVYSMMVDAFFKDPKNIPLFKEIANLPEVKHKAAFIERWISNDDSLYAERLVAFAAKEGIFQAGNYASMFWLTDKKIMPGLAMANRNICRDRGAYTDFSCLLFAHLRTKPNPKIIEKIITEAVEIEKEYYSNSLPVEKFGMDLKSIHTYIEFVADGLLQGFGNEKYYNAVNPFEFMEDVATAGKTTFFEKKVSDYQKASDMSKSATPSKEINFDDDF
Experiment: SPR

Kd: 600 nM
B1: Recombinant wild-type Dif1 protein (His6-Dif1) (natural protein, S. cerevisiae, UniProt O13577 1-133, looked up)
chain: MDAQLEWASSLVPKRQLQQQQQQQEQQQQQQQDFHKDQLMTVGMRIRQRVDQGYASRTPSTSDASLQPGVIRDYSSVIVPQFTRSPLPTANSLPPMLINQRTMSTEASSLEKWDVAEPAAEHETMVNGSKRRL
